The values that follow come from article PMC6351178.

This test concerns the target PitA (E. coli (endogenous in MG1655)) (UniProt P0AFJ7). As to the kind of experiment: cross-linking.
UniProt P0AFJ7, sequence (P0AFJ7 whole entry): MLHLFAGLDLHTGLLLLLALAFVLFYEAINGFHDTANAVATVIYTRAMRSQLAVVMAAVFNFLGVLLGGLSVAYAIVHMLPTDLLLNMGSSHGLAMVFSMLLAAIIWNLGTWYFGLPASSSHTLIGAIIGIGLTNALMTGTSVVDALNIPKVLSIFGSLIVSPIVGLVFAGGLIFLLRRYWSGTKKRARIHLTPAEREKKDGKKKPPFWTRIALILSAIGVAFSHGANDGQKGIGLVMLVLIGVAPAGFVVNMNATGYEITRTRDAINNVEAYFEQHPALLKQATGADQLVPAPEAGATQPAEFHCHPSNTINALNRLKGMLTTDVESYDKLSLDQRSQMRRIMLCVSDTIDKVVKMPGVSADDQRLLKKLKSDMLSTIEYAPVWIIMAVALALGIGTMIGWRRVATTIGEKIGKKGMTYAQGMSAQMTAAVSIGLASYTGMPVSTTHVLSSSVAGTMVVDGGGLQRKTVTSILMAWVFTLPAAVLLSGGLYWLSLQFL

The substance “MgtS-SPA (from UniProt A5A616 1-31) (natural protein)” showed a stoichiometry N (MgtS-SPA per PitA) of 1.
